doi:10.1101/671156

Legend:
[1] = target: biotin-labeled YxxQ diheptad peptide (human) (UniProt Q96PK6); assay: ELISA; settings: domain or fragment
[2] = target: CoAA YxxQ repeats, 307-545 (UniProt Q96PK6); assay: plate-coated GST-YxxQ, biotin peptide, streptavidin-HRP; settings: reference: unphosphorylated CTD peptide
CoAA YxxQ repeats, 307-545, sequence (Q96PK6 whole entry, looked up, tested part not stated): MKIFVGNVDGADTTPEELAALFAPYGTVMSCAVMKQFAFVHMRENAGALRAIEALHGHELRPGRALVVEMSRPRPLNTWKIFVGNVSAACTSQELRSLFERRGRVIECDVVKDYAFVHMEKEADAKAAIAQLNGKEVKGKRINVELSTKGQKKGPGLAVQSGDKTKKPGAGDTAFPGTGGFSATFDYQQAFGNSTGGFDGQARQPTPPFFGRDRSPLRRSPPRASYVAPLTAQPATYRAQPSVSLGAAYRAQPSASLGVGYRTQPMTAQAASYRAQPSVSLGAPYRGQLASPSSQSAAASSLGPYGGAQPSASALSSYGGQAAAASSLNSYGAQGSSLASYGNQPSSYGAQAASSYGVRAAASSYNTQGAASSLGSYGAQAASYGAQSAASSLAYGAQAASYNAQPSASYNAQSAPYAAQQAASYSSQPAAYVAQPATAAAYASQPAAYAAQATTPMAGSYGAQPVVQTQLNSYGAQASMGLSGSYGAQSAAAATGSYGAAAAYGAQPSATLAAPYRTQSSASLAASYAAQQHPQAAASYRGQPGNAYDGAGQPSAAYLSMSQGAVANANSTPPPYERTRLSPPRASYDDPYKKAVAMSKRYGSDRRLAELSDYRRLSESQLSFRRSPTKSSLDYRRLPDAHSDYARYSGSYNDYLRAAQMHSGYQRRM

GST-CTD-AA (not phosphorylated, coated on plate), sequence (P04050 whole entry, looked up): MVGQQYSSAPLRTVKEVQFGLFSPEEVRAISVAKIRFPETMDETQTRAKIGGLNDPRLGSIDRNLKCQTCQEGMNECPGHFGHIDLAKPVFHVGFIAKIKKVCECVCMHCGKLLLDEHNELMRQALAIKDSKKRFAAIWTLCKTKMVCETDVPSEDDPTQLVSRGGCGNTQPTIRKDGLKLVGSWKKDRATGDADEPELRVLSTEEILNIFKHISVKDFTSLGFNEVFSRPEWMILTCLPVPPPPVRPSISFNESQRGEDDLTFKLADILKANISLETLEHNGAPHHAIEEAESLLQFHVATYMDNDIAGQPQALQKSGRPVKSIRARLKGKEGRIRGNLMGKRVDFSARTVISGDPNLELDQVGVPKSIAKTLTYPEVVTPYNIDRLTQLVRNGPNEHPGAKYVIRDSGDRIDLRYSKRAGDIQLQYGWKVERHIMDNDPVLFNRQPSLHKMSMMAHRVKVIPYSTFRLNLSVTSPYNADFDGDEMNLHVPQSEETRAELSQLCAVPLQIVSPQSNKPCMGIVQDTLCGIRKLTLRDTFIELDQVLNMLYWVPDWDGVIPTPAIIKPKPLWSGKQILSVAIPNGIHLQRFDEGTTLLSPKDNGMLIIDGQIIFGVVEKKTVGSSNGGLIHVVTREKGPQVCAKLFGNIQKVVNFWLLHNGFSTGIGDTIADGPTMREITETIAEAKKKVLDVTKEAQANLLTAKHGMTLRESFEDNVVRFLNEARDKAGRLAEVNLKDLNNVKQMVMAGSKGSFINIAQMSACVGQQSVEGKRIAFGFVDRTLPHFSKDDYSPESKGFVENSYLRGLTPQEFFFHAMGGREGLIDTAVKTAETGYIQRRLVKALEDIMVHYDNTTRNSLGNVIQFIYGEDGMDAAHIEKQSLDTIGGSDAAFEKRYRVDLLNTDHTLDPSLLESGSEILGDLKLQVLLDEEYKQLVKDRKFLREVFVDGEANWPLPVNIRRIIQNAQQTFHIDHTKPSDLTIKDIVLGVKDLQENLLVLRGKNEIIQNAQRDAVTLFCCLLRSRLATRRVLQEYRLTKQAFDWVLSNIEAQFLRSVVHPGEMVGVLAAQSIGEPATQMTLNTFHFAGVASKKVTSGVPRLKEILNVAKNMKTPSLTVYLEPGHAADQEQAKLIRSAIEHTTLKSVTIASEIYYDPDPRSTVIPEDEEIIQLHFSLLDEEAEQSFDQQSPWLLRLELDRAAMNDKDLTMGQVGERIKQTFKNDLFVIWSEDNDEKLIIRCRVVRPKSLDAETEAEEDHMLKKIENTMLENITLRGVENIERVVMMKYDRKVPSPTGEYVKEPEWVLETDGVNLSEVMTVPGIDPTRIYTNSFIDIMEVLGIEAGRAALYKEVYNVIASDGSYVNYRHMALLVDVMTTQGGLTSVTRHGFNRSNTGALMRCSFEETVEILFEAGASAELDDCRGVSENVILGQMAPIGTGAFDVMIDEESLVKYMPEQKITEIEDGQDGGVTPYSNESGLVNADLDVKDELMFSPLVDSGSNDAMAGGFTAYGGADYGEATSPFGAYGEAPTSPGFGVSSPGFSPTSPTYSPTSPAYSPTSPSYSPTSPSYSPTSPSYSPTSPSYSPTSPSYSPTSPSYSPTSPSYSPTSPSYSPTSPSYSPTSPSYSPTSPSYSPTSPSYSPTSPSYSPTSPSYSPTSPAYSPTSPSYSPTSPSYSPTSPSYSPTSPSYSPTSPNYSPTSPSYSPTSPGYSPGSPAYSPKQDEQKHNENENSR

## GST-CTD-AA (not phosphorylated, coated on plate) (from UniProt P04050)
[1]
  EC50: 2.43 µM

## RNA polymerase II largest subunit CTD pSer2 CTD peptide
[2]; sites S2
  EC50: stronger; reference 1066

## RNA polymerase II largest subunit CTD pSer5 CTD peptide
[2]; sites S5
  EC50: stronger; reference 1066
